4 sequences from patent publication US20250019680 can be followed below.

The test system of data set [1] is dRBD #3L (LwaCas13a with hnRNP A1 RRM2 98-196 inserted between N415 and N416, catalytically inactive HEPN2) R1046A/H1051A (LwaCas13a numbering) (Leptotrichia wadei / Homo sapiens). Put plainly: EMSA. For orientation: Mobility shift assays separate free from complexed probe on a gel.
Data set [2] relates to dRBD #4L (LwaCas13a with hnRNP C RRM 2-106 inserted between N415 and N416, catalytically inactive HEPN2) R1046A/H1051A (LwaCas13a numbering) (Leptotrichia wadei / Homo sapiens). Put plainly: EMSA.
Data set [3] concerns RBD #4L LwaCas13a (Leptotrichia wadei / Homo sapiens). Put plainly: cleavage_in_vitro. The settings on record: collateral cleavage of RNaseAlert.
In data set [4] the test system is RBD #3L LwaCas13a (Leptotrichia wadei / Homo sapiens). Put plainly: cleavage_in_vitro. The settings on record: collateral cleavage of RNaseAlert.
Data set [5] deals with RBD #2L LwaCas13a (hnRNP A1 1-104 in Loop 1) (Leptotrichia wadei / Homo sapiens). Put plainly: cleavage_in_vitro. The note with it: collateral cleavage of RNaseAlert.
Data set [6] relates to T1, RBD #6L LwaCas13a (ADAR1 126-202 in Loop 1) (Leptotrichia wadei / Homo sapiens).
T1 sequence: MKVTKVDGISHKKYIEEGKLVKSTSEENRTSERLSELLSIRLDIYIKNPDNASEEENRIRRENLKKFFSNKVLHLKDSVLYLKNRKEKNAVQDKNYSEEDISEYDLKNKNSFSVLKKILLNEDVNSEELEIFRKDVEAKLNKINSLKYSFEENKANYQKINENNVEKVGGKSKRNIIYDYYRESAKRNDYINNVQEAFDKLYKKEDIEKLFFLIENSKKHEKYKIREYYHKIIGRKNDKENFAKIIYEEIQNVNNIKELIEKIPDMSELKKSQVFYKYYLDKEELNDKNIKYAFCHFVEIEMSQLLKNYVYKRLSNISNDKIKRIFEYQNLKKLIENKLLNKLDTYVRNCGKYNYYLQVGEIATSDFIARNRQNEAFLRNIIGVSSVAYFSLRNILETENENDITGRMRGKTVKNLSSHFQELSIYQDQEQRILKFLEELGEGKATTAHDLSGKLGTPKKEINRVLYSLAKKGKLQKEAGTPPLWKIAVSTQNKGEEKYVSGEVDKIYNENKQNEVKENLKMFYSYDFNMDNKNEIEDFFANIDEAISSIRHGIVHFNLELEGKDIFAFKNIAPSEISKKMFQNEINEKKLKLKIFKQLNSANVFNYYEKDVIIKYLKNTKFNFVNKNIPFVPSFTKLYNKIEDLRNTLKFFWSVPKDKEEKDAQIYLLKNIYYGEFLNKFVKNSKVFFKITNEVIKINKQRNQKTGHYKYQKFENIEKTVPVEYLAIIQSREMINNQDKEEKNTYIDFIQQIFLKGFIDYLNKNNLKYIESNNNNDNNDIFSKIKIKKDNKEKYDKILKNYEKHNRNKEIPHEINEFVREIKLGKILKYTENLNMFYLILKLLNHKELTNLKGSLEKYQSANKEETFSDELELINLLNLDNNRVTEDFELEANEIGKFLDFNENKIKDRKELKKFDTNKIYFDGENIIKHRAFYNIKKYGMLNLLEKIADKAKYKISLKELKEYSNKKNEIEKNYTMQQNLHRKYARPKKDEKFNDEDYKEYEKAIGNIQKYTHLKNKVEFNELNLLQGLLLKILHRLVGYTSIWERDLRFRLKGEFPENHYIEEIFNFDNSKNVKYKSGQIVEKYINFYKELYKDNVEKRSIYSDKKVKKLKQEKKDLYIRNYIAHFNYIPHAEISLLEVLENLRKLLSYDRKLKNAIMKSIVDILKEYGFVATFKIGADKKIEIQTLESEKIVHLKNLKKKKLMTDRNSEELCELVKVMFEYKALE
Put plainly: cleavage_in_vitro. The note with it: collateral cleavage of RNaseAlert.

[7] abbreviates: crRNA complex, 50 mM Tris pH 8.0, 60 mM NaCl, 5 mM MgCl2, 37 C.
Where [8] appears, read: crRNA complex, 5 mM MgCl2, 37 C.
Setting [9] is: collateral reporter binding by cr1/T1-bound complex, pH 7.5, 5 mM MgCl2, 0.01% Triton X-100.

For “GACUACCCCAAAAACGAAGGGGACUAAAACAAUCUGAGGGUCCACCAAACGUAAUGCG / ACCCCGCAUUACGUUUGGUGGACCCUCAGAUUCAAC [cr1_N crRNA ; T26_N_2 target (36 nt)]”, the Kd (commonly the constant that tells how readily two partners part at equilibrium) in data set [1] (setting [7]) stood at 23 nM; in data set [2] (setting [7]), 18 nM.
Take “GACUACCCCAAAAACGAAGGGGACUAAAACAAUCUGAGGGUCCACCAAACGUAAUGCG / GUCUGAUAAUGGACCCCAAAAUCAGCGAAAUGCACCCCGCAUUACGUUUGGUGGACCCUCAGAUUCAACUGGCAGUAACCAGAAUGGAGAACGCAGUGGGGCGCG [cr1_N crRNA ; T1_N target (105 nt)]”: the values for the Kd in data set [1] (setting [8]) and in data set [2] (setting [8]) were 12 nM and 11 nM, respectively.
Take “GACUACCCCAAAAACGAAGGGGACUAAAACUCACUCAAUACUUGAGCACACUCAUUAG / GUGAUAGAGCCAUGCCUAACAUGCUUAGAAUUAUGGCCUCACUUGUUCUUGCUCGCAAACAUACAACGUGUUGUAGCUUGUCACACCGUUUCUAUAGAUUAGCUAAUGAGUGUGCUCAAGUAUUGAGUGAAAUGGUCAUGUGUGGCGGUUCACUAUAUGUUAAACCAGGUGGAACCUCAUCAGGAGAUGCCACAACUGCUUAUGCUAAUAGUGUUUUUAACAUUUGU [cr2_RdRp crRNA ; T2_RdRp target]”: the binding signal (% higher than WT) in data set [3] stood at 241; in data set [4], 264; in data set [5], 164; in data set [6], 171.
For UUUUUUUUUUUUUUUUUUUU [U20 reporter], the Kd is 230 nM in data set [1] (setting [9]) and 150 nM in data set [2] (setting [9]).
